Values of other authors, collected in paper PMC3001128.
pKd: −log10 of the molar value. One block for each substance: values may come before it.

Assays:
CD48 IgV = CD48 IgV (UniProt P18181)
CD58 IgV (Homo sapiens) = CD58 IgV (Homo sapiens) (UniProt P19256)
GITR (Homo sapiens) = GITR (Homo sapiens) (UniProt Q9Y5U5)
NTB-A (Homo sapiens) = NTB-A (Homo sapiens) (UniProt Q96DU3)
[1] = target: SLAM (CD150) (Homo sapiens) (UniProt Q13291)

UniProt P19256, sequence (P19256 30-121): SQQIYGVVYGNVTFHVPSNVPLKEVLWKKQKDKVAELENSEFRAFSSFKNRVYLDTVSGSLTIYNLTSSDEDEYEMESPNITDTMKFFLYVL
UniProt P18181, sequence (P18181 29-125): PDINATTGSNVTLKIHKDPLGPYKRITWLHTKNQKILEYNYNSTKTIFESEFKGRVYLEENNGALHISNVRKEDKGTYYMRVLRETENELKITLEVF
UniProt Q9Y5U5, sequence (Q9Y5U5 26-241): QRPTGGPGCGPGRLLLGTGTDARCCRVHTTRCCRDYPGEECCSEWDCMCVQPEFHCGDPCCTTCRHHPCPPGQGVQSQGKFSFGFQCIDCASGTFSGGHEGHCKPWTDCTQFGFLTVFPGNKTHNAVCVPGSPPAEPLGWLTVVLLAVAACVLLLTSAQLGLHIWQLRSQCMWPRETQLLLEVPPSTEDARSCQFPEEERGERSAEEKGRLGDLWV

Substance: GITRL (from UniProt Q9UNG2)
pKd (GITR (Homo sapiens)): 6.25

Substance: NTB-A (from UniProt Q96DU3)
pKd (NTB-A (Homo sapiens)): 5.70

The next lines start with the values.

pKd (CD48 IgV): 5.40
Substance: 2B4 IgV (from UniProt Q07763)

pKd (CD58 IgV (Homo sapiens)): 5.00
Substance: CD2 IgV (from UniProt P06729)

pKd [1]: 3.70
Substance: SLAM (CD150) (from UniProt Q13291)
